The results in this text go back to patent US7781394B2, “Methods for identifying anti-tumor and/or anti-angiogenesis drugs with deoxynucleoside 5′-monophosphate N-glycosidase as the target” (Institut Pasteur, priority 2006, dated 2010).

For assay [1], the system named is Rat1a-MYC cell xenografts. Put plainly: Nude mouse xenografts of Rat1a-MYC-Rcl-E93A cells, tumorigenicity. The following applies: two independent cell pools. It is filed as in vivo. The source says: FIG. 7A. Immunoblot showing expression of Rcl-E93A protein in 293T cells; pPURO (pBabe-Puro) represents control transfected cells; none=untransfected cells. B. Immunoblot showing expression of Rcl and Rcl-E 93A in Rat1a-MYC cells (which have high levels of endogenous Rcl). Numbers at the top represents different cell pools. Numbers at the bottom represents normalized relative expression. C. Agarose gel showing expression of Rcl-E93A mRNA in transfectants by RT-PCR of control pPURO or Rcl-E93A expressing Rat1a-MYC cell pools. Signals are dependent on reverse transcriptase (not shown) D. Tumor sizes of pBABE (pools 1 and 2) control Rat1a-Myc cell pools compared with RCL E93A expressing Rat1a-MYC cell pools (E93A#1+E93A#4). Average tumor sizes determined by caliper are shown for groups of nine animals. Error bars are standard deviations.
(§1) In addition to the studies on RCL (C6orf108) gain-of-function in tumorigenesis, we determined the effect of loss of RCL function on tumorigenesis with the Rat1a-Myc cells. We generated control Rat1a-MYC cells and Rat1a-MYC cells that overexpress the dominant negative Rcl E 93A mutant. Two independent control transfected cell pools and two independent Rcl E 93A Rat1a-MYC transfectant cell pools were studied (FIG. 7).

A further assay deals with Rat1a-MYC cells. Put plainly: In vitro growth of Rat1a-MYC cells overexpressing dominant negative Rcl E93A. It is filed as cell-based, rat. The following applies: Rat1a-MYC cells overexpressing the mutant.
Source text: as §1

B1: Rcl E 93A: dominant negative RCL mutant, Glu-93 replaced by Ala, overexpressed in Rat1a-MYC cells (protein, UniProt O35820 2-163, looked up, variant E93A)
5-hydroxymethyl-dUMP …: AASGEQAPCSVYFCGSIRGGREDQALYARIVSRLRRYGKVLTEHVADAELEPLGEEAAGGDQFIHEQDLNWLQQADVVVAEVTQPSLGVGYALGRAVALGKPILCLFRPQSGRVLSAMIRGAADGSRFQVWDYAEGEVETMLDRYFEAYLPQKTASSSHPSA
With B1, the “tumorigenicity of xenografts versus control cell pools” value in assay [1] is on record as “remarkable decrease in tumorigenicity”. The “effect on growth rates in vitro” value in the assay on Rat1a-MYC cells is listed as “does not affect growth rates”.
